In patent US20260241018A1 (BIOCYTOGEN PHARMACEUTICALS BEIJING, published 2026):

Tests used:
[1] = biological target: T1, monkey (Macaca fascicularis) 5T4 expressed on CHO-S cells (CHO-fas5T4 cells) (monkey (Macaca fascicularis), UniProt Q4R8Y9 35-355); test: flow cytometry, CHO-fas5T4 cells
T1 construct: also called monkey 5T4
T1 sequence: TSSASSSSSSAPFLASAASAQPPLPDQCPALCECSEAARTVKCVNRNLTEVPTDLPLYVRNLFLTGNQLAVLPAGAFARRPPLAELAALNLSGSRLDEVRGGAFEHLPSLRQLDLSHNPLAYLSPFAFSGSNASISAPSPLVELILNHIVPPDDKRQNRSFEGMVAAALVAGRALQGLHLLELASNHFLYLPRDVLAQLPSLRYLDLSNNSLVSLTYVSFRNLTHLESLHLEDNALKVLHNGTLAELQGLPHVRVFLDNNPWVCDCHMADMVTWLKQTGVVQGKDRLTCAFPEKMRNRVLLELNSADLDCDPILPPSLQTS
Description: (§1) CHO-h5T4 cells, CHO-m5T4 cells, CHO-fas5T4 cells or CHO-d5T4 cells were transferred to a 96-well plate at a density of 2×10⁵ cells/well respectively. The anti-5T4 antibodies were added to the 96-well plate, and incubated at 4° C. for 30 min. Then, the cells were incubated with the secondary antibody anti-hlgG-Fc-Alex Flour 647 (RL1-H) (Jackson ImmunoResearch Laboratories, Inc., Cat #: 109-606-170) at 4° C. in the dark for 15 minutes before flow cytometry analysis.

h5T4-His protein [2] = biological target: T2, h5T4-His protein (human, UniProt Q13641 32-355, limits assumed); test: epitope binding assay, h5T4-His captured; binder = analyte 2; competitor (analyte 1): 32G1
T2 construct: also called His-tagged human 5T4 protein; not shown: His tag
T2 sequence (looked up): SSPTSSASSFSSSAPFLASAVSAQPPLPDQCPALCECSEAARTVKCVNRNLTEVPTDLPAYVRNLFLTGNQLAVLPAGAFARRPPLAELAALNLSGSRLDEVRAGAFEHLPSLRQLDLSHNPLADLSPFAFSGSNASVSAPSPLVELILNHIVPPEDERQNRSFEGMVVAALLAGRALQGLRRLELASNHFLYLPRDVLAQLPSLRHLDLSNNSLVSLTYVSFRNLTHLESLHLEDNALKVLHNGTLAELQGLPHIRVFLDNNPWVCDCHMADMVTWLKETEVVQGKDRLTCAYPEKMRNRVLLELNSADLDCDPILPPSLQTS
Description: (§2) Epitope binding assays were performed using ForteBio Octet system to determine whether two anti-5T4 antibodies target the same or overlapping epitopes. 1×HBS-EP+buffer (10 mM 4-(2-hydroxyethyl)-1-piperazineethanesulfonic acid (HEPES), 150 mM NaCl, 3 mM ethylenediaminetetraacetic acid (EDTA) and 0.05% P20, pH7.4) diluted from HBS-EP+buffer (10×) was used as the running buffer throughout the experiment. About 50 RU of h5T4-His protein was captured at a flow rate of 10 μL/min, and 200 nM of the tested antibody was injected at a flow rate of 30 μL/min to bind the ligand. Another comparison antibody was injected under the same conditions to determine whether the binding of different antibodies interfered with each other. The binding time was 180 s for each antibody.
(§3) The binding value of each antibody was obtained using Data Analysis HT 12.0. To quantify the interference of one antibody binding to another, a binding ratio was calculated to compare each pair of antibodies. The binding ratio is defined as the binding value of the second antibody (analyte 2), divided by the binding value of the first antibody (analyte 1). […] In general, antibody pairs that interfere with each other have the same or overlapping epitopes.

h5T4-His protein [3] = biological target: T2, h5T4-His protein; test: epitope binding assay, h5T4-His captured; binder = analyte 2; competitor (analyte 1): 31G4
Description: as §2, §3

h5T4-His protein [4] = biological target: T2, h5T4-His protein; test: epitope binding assay, h5T4-His captured; binder = analyte 2; competitor (analyte 1): 32E3
Description: as §2, §3

[5] = biological target: T3, dog 5T4 expressed on CHO-S cells (CHO-d5T4 cells) (dog); test: flow cytometry, CHO-d5T4 cells
T3 chain: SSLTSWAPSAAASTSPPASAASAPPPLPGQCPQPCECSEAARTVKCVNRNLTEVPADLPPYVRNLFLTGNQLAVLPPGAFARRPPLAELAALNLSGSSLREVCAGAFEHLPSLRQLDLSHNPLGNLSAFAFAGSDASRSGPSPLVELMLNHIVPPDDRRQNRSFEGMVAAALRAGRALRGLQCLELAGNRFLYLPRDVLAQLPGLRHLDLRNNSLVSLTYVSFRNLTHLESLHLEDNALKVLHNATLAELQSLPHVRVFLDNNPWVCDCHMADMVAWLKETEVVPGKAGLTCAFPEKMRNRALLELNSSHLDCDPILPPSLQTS
Description: as §1

[6] = biological target: T4, His-tagged 5T4 protein of mouse (m5T4, ACRO Biosystems Inc., Cat #: TPG-M52H3) (mouse, UniProt Q9Z0L0 32-361, limits assumed); test: SPR (Biacore 8K), antibody captured on Protein A chip, His-tagged 5T4 as analyte
T4 construct: Bought protein; not shown: His tag
T4 sequence (looked up): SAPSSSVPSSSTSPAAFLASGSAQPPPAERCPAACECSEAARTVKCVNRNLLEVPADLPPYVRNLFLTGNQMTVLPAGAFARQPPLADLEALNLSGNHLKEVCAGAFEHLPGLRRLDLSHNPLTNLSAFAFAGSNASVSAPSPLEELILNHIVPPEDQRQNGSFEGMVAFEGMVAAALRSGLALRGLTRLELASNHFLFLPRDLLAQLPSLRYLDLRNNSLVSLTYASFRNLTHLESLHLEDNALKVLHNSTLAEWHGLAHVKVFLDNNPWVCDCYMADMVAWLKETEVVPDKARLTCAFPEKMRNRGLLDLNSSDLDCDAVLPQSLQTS
Description: (§4) Purified anti-5T4 antibodies were diluted to 2 μg/mL and then injected into the Biacore™ 8K biosensor at 10 μL/min for about 50 seconds to achieve a desired protein density (e.g., about 50 response units (RU)). His-tagged 5T4 protein at a concentration of 200 nM was then injected at 30 μL/min for 180 seconds. Dissociation was monitored for 400 seconds. The chip was regenerated after the last injection of each titration with Glycine (pH 2.0), 30 μL/min for 30 seconds. For ISO control, an antibody targeting an irrelevant target protein was used.
(§5) As a person of ordinary skill in the art would understand, the same method with appropriate adjustments for parameters (e.g., antibody concentration) was performed for each tested antibody.

[7] = biological target: T5, His-tagged 5T4 protein of monkey (fas5T4, ACRO Biosystems Inc., Cat #: TPG-C52H3) (monkey, UniProt Q4R8Y9 35-355); test: as above
T5 construct: Bought protein
T5 sequence: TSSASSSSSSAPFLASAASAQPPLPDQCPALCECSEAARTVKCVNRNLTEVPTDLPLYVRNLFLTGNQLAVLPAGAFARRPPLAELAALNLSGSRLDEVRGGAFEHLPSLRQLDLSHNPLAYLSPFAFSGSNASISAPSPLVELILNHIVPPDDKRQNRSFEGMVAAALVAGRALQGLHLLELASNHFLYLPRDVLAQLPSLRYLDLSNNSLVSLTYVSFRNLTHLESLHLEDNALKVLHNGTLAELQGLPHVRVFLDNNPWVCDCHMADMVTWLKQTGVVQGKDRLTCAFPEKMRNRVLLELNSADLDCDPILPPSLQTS
Description: as §4, §5

[8] = biological target: T6, His-tagged 5T4 protein of human (h5T4, ACRO Biosystems Inc., Cat #: TPG-H52E5) (human, UniProt Q13641 32-355); test: as above
T6 construct: Bought protein; not shown: His tag
T6 sequence (looked up): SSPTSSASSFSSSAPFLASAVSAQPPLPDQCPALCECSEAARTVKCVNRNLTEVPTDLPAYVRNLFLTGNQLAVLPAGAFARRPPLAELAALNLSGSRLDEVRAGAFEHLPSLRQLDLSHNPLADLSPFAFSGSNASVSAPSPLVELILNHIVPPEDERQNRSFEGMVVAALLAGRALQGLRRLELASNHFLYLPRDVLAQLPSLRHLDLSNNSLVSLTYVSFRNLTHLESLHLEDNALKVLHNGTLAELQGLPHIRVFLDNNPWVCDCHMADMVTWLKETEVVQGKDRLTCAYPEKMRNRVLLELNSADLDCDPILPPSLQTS
Description: as §4, §5

[9] = biological target: T7, human 5T4 expressed on CHO-S cells (CHO-h5T4 cells) (human, UniProt Q13641 32-355); test: flow cytometry, CHO-h5T4 cells
T7 sequence: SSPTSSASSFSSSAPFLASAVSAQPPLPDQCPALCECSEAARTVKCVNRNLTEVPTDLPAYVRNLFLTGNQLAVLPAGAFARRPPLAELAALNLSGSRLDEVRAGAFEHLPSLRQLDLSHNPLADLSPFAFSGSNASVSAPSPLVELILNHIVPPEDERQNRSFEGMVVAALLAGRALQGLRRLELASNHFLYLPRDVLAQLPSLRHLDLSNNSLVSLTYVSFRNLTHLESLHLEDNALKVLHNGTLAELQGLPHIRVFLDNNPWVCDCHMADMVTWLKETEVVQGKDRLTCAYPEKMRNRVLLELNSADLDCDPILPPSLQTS
Description: as §1

[10] = biological target: T8, mouse 5T4 expressed on CHO-S cells (CHO-m5T4 cells) (mouse, UniProt Q9Z0L0 32-361); test: flow cytometry, CHO-m5T4 cells
T8 sequence: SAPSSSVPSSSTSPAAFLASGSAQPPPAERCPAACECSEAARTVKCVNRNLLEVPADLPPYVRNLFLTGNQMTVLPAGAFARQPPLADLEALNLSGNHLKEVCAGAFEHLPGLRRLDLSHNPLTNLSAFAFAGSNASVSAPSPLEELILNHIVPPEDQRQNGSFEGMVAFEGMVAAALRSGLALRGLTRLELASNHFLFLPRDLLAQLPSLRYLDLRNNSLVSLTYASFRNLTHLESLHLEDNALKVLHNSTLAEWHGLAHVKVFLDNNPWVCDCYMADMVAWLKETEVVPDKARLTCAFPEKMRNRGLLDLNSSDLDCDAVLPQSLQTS
Description: as §1

h5T4-His protein [11] = biological target: T2, h5T4-His protein; test: epitope binding assay, h5T4-His captured; binder = analyte 2; competitor (analyte 1): 35B12
Description: as §2, §3

h5T4-His protein [12] = biological target: T2, h5T4-His protein; test: epitope binding assay, h5T4-His captured; binder = analyte 2; competitor (analyte 1): 35C6
Description: as §2, §3

h5T4-His protein [13] = biological target: T2, h5T4-His protein; test: epitope binding assay, h5T4-His captured; binder = analyte 2; competitor (analyte 1): 32G8
Description: as §2, §3

B1: 31G4 (antibody, V domains shown)
VH: QVQLVQSGGGLVQPGGSLRLSCAASGFTFKSYWMHWVRQAPGKGLEWVSRINFDGSSITYADSVKGRFTISRDNAKNTLYLQMNSLSAEDTAVYYCARPLTYYEILTGFSQYFDFWGQGTLVTVSS
VL: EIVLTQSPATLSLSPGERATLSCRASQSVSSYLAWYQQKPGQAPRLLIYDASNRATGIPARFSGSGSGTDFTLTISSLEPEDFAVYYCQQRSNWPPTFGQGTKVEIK
notes: also called anti-5T4 antibody 31G4
In the case of B1, the “Percentage of Positive Cells” value [1] is reported as 58.8%, the binding ratio (h5T4-His protein [2]) is reported as 1.04 and the binding ratio (h5T4-His protein [3]) is reported as 0.04. The binding ratio (h5T4-His protein [4]) was 1.01, the “Percentage of Positive Cells” value [5] was 1.1% and the binding result [5] was “no binding”. For the same binder, the binding result [6] was “no binding (tested: 200 nM)”, the Kd [7] was 10.1 nM and the koff [7] was 0.00101 s⁻¹. It also gave a kon [7] of 100000 M⁻¹ s⁻¹, a Kd [8] of 2.68 nM and a koff [8] of 0.000397 s⁻¹. The kon [8] was 148000 M⁻¹ s⁻¹, the “Percentage of Positive Cells” value [9] was 79.3% and the “Percentage of Positive Cells” value [10] was 1.4%. For the same binder, the binding result [10] was “no binding”, the binding ratio (h5T4-His protein [11]) was 1.01 and the binding ratio (h5T4-His protein [12]) was 1.05. For the same binder, the binding ratio (h5T4-His protein [13]) was 1.01.

B2: 35B12 (antibody, V domains shown)
VH: QVQLQESGPRLVKPSETLSLTCTVSGGSISSNDWSWIRQPPGKGLEWIGEISYSGITNYNPSLKSRVSISVETSKNHFSLNLSSVTAADTAVYYCATAGGSSGWYDYWFDPWGQGTLVTVSS
VL: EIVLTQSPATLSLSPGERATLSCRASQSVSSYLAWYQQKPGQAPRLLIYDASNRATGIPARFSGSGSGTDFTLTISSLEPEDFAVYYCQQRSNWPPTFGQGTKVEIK
notes: also called anti-5T4 antibody 35B12
With B2 the “Percentage of Positive Cells” value [1] was 52.1%, the binding ratio (h5T4-His protein [2]) was 0.05 and the binding ratio (h5T4-His protein [3]) was 0.87. The binding ratio (h5T4-His protein [4]) was 0.97, the “Percentage of Positive Cells” value [5] was 76% and the Kd [6] was 72.2 nM. For the same binder, the koff [6] was 0.00366 s⁻¹, the kon [6] was 50700 M⁻¹ s⁻¹ and the Kd [7] was 198 nM. The koff [7] was 0.0219 s⁻¹, the kon [7] was 111000 M⁻¹ s⁻¹ and the Kd [8] was 122 nM. The koff [8] was 0.0215 s⁻¹, the kon [8] was 176000 M⁻¹ s⁻¹ and the “Percentage of Positive Cells” value [9] was 78%. For the same binder, the “Percentage of Positive Cells” value [10] was 54.1%, the binding ratio (h5T4-His protein [11]) was 0 and the binding ratio (h5T4-His protein [12]) was 0.04. The binding ratio (h5T4-His protein [13]) was 0.91.

B3: 35C6 (antibody, V domains shown)
VH: QVQLVQSGGGLVQPGGSLRLSCAASGFTFSRNAMSWVRQAPGKGLEWVSAISGSGGSTHDADSVKGRFTISRDNSKNTLYLEMNSLRAEDTAVYYCAKDGYSSLWDYHYYGMDVWGQGTTVTVSS
VL: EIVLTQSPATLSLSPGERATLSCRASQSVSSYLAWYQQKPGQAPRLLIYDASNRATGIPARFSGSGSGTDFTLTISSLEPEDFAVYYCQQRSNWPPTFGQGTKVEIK
notes: also called anti-5T4 antibody 35C6
With B3 the “Percentage of Positive Cells” value [1] was 55.7%, the binding ratio (h5T4-His protein [2]) was 0.96 and the binding ratio (h5T4-His protein [3]) was 0.81. The binding ratio (h5T4-His protein [4]) was 0.93, the “Percentage of Positive Cells” value [5] was 71.1% and the Kd [6] was 1.31 nM. The koff [6] was 0.000407 s⁻¹, the kon [6] was 310000 M⁻¹ s⁻¹ and the Kd [8] was 19.2 nM. The koff [8] was 0.00315 s⁻¹, the kon [8] was 164000 M⁻¹ s⁻¹ and the “Percentage of Positive Cells” value [9] was 67.3%. For the same binder, the “Percentage of Positive Cells” value [10] was 63.3%, the binding ratio (h5T4-His protein [11]) was 0.03 and the binding ratio (h5T4-His protein [12]) was 0.02. It also gave a binding ratio (h5T4-His protein [13]) of 0.98.
